Assay in all cases: BioID2 proximity labelling, HEK293 cells
The target in assay [1] is T1, SUZ12 tagged with BirA-FLAG (human; Aquifex aeolicus, UniProt Q15022 1-739).
T1 construct: not shown: BioID2 biotin ligase (BirA from Aquifex aeolicus) tag

For a further assay, the target named is T2, p300 (human, UniProt Q09472 2-2414).
T2 construct: Endogenous prey identified by mass spectrometry; also called EP300; CBP/p300 (with CBP)

For a further assay, the target named is T3, CBP (human, UniProt Q92793 2-2442).
T3 construct: Endogenous prey identified by mass spectrometry; also called CBP/p300 (with p300)
T3 sequence (Q92793 2-2442 limits assumed): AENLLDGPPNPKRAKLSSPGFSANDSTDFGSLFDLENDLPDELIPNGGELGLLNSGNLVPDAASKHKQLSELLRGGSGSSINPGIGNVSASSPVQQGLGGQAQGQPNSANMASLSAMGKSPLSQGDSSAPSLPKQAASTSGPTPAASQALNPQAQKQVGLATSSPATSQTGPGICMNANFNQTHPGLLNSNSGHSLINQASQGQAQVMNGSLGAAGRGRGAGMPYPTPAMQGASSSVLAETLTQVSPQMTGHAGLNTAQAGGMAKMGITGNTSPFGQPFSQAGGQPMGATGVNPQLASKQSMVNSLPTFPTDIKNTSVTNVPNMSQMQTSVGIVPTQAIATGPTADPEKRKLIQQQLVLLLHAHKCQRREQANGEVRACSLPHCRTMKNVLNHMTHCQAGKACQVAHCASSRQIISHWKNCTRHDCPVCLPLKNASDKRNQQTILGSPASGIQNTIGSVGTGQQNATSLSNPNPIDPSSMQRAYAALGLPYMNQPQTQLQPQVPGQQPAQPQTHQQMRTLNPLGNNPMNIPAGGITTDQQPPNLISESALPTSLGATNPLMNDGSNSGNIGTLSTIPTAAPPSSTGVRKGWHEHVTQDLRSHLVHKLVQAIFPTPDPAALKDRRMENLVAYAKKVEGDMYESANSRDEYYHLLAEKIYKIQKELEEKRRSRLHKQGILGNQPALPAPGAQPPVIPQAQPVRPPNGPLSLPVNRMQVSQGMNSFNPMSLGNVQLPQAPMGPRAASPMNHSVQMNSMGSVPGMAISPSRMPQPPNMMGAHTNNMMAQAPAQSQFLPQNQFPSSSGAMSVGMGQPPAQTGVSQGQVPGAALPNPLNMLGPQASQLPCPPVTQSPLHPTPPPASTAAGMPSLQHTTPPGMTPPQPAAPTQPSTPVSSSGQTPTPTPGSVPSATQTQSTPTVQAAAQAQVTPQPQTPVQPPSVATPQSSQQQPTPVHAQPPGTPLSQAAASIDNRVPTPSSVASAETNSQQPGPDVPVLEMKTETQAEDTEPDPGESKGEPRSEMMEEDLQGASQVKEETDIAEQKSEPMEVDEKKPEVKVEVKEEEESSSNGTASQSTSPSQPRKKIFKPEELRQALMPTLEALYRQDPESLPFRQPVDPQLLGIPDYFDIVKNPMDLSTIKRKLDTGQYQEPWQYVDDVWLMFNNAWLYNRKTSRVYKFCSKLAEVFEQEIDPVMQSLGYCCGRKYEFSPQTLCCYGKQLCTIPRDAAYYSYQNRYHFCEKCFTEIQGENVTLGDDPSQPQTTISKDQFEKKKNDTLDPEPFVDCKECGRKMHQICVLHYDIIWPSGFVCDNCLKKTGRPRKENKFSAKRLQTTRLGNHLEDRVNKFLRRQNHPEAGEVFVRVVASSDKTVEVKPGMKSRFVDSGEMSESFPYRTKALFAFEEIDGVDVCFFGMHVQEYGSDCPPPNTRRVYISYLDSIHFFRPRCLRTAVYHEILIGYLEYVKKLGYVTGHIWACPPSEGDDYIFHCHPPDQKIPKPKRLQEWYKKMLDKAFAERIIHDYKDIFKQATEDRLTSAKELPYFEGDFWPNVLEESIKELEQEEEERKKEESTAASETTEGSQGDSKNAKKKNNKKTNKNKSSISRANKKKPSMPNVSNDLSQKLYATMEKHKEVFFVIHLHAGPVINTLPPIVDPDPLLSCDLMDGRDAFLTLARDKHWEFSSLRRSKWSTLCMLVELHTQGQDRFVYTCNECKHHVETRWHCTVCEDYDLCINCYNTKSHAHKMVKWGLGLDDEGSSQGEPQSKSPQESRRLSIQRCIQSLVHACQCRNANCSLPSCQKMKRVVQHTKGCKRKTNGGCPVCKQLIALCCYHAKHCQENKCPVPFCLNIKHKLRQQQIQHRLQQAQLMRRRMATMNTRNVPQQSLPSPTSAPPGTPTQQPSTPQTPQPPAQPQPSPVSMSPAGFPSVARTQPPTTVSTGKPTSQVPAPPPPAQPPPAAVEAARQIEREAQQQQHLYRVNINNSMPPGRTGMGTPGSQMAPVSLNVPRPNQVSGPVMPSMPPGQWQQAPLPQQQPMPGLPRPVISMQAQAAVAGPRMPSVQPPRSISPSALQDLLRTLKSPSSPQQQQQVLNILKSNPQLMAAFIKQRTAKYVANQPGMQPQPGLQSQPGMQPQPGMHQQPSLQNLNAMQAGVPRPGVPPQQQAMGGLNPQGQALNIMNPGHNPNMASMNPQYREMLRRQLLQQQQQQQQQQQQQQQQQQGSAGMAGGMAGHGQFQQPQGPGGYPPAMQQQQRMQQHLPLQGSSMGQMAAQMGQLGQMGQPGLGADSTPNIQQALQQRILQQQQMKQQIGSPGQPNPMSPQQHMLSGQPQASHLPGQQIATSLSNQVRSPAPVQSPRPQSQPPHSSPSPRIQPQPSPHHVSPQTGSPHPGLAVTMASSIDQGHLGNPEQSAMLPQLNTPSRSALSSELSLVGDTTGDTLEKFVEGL

In assay [2] the target is T4, SRF (Serum Response Factor) tagged with BirA-FLAG (human; Aquifex aeolicus, UniProt P11831 1-508).
T4 construct: not shown: BioID2 biotin ligase (BirA from Aquifex aeolicus) tag
T4 sequence (looked up): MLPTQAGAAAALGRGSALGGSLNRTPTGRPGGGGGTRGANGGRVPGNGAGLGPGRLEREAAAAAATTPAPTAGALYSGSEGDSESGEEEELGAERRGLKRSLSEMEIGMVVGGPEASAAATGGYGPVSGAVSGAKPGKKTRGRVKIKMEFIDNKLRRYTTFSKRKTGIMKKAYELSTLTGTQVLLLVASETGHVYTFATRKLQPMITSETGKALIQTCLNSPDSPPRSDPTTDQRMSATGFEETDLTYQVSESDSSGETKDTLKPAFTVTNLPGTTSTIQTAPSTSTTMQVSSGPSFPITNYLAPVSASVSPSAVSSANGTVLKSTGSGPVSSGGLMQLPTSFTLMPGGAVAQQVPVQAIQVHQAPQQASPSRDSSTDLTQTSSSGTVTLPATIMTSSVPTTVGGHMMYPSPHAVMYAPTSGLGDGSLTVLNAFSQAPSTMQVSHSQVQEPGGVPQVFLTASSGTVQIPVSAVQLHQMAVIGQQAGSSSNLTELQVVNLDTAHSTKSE

T1 sequence (Q15022 whole entry): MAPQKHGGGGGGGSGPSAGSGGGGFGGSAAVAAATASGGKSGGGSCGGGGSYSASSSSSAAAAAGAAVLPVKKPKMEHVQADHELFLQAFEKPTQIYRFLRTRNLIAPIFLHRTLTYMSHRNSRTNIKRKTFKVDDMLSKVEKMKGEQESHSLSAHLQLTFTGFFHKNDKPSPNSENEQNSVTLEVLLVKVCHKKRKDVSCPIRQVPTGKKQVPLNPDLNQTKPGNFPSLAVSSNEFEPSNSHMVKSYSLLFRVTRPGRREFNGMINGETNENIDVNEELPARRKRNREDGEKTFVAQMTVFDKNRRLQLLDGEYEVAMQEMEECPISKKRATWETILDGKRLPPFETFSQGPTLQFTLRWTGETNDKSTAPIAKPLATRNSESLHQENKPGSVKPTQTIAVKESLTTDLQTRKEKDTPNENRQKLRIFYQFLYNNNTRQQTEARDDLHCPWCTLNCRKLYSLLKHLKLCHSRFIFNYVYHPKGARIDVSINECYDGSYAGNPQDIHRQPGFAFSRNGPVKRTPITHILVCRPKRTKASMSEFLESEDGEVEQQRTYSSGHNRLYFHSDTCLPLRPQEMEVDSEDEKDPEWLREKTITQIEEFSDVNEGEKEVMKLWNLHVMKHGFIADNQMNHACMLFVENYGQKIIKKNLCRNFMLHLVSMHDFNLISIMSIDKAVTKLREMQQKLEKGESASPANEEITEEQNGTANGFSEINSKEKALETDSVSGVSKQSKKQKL

B1: MTF2/PCL2 (other, human, UniProt Q9Y483 1-593, looked up)
chain: MRDSTGAGNSLVHKRSPLRRNQKTPTSLTKLSLQDGHKAKKPACKFEEGQDVLARWSDGLFYLGTIKKINILKQSCFIIFEDSSKSWVLWKDIQTGATGSGEMVCTICQEEYSEAPNEMVICDKCGQGYHQLCHTPHIDSSVIDSDEKWLCRQCVFATTTKRGGALKKGPNAKALQVMKQTLPYSVADLEWDAGHKTNVQQCYCYCGGPGDWYLKMLQCCKCKQWFHEACVQCLQKPMLFGDRFYTFICSVCSSGPEYLKRLPLQWVDIAHLCLYNLSVIHKKKYFDSELELMTYINENWDRLHPGELADTPKSERYEHVLEALNDYKTMFMSGKEIKKKKHLFGLRIRVPPVPPNVAFKAEKEPEGTSHEFKIKGRKASKPISDSREVSNGIEKKGKKKSVGRPPGPYTRKMIQKTAEPLLDKESISENPTLDLPCSIGRTEGTAHSSNTSDVDFTGASSAKETTSSSISRHYGLSDSRKRTRTGRSWPAAIPHLRRRRGRLPRRALQTQNSEIVKDDEGKEDYQFDELNTEILNNLADQELQLNHLKNSITSYFGAAGRIACGEKYRVLARRVTLDGKVQYLVEWEGATAS
As for B1, the binding result in assay [1] is given as “binds”.

B2: SOX7 fused to BioID2 (BirA from Aquifex aeolicus) and FLAG (other, human;Aquifex aeolicus, UniProt Q9BT81 1-388, looked up)
chain: MASLLGAYPWPEGLECPALDAELSDGQSPPAVPRPPGDKGSESRIRRPMNAFMVWAKDERKRLAVQNPDLHNAELSKMLGKSWKALTLSQKRPYVDEAERLRLQHMQDYPNYKYRPRRKKQAKRLCKRVDPGFLLSSLSRDQNALPEKRSGSRGALGEKEDRGEYSPGTALPSLRGCYHEGPAGGGGGGTPSSVDTYPYGLPTPPEMSPLDVLEPEQTFFSSPCQEEHGHPRRIPHLPGHPYSPEYAPSPLHCSHPLGSLALGQSPGVSMMSPVPGCPPSPAYYSPATYHPLHSNLQAHLGQLSPPPEHPGFDALDQLSQVELLGDMDRNEFDQYLNTPGHPDSATGAMALSGHVPVSQVTPTGPTETSLISVLADATATYYNSYSVS
notes: Tetracycline-inducible bait in HEK293 Flp-In T-REx cells; not shown: BioID2 biotin ligase (BirA from Aquifex aeolicus), C-terminal tag
Take B2: the binding result in the assay with p300 and with CBP was “binds” each time.

B3: ELK1 (other, human, UniProt P19419 1-428, looked up)
chain: MDPSVTLWQFLLQLLREQGNGHIISWTSRDGGEFKLVDAEEVARLWGLRKNKTNMNYDKLSRALRYYYDKNIIRKVSGQKFVYKFVSYPEVAGCSTEDCPPQPEVSVTSTMPNVAPAAIHAAPGDTVSGKPGTPKGAGMAGPGGLARSSRNEYMRSGLYSTFTIQSLQPQPPPHPRPAVVLPSAAPAGAAAPPSGSRSTSPSPLEACLEAEEAGLPLQVILTPPEAPNLKSEELNVEPGLGRALPPEVKVEGPKEELEVAGERGFVPETTKAEPEVPPQEGVPARLPAVVMDTAGQAGGHAASSPEISQPQKGRKPRDLELPLSPSLLGGPGPERTPGSGSGSGLQAPGPALTPSLLPTHTLTPVLLTPSSLPPSIHFWSTLSPIAPRSPAKLSFQFPSSGSAQVHIPSISVDGLSTPVVLSPGPQKP
As to B3, the binding result in assay [2] is recorded as “binds”.

Source of the values: US20240309360A1 (GOVERNING COUNCIL OF THE UNIVERSITY OF TORONTO, published 2024).
